T1: recombinant CCR1 (UniProt P32246 1-355, limits assumed)
T1 construct: whole, on cells; The assay used membranes of CHO transfectants, not whole cells
T1 sequence (looked up): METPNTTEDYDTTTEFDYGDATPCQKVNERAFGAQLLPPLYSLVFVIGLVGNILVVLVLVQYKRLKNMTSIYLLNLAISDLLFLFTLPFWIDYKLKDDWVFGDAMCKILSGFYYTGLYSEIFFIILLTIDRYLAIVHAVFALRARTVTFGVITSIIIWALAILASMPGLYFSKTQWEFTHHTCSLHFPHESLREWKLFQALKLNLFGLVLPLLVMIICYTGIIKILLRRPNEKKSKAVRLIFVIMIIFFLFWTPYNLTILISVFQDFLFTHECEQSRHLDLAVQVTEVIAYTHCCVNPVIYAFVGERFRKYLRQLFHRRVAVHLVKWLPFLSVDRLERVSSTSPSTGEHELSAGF

B1: triple 40's RANTES mutant (R44A-K45A-R47A) (ligand)
chain: SPYSSDTTPCCFAYIARPLPRAHIKEYFYTSGKCSNPAVVFVTAANAQVCANPEKKWVREYINSLEMS
notes: E. coli protein, leader cleaved; also called R44A-K45A-R47A RANTES; triple 40's mutant
B2: triple 50's RANTES mutant (K55A-K56A-R59A) (ligand)
chain: SPYSSDTTPCCFAYIARPLPRAHIKEYFYTSGKCSNPAVVFVTRKNRQVCANPEAAWVAEYINSLEMS
notes: E. coli protein, leader cleaved; also called triple 50's mutant; 50's mutant

Target: T1, recombinant CCR1
Assay: SPA equilibrium competition with [125I]-MIP-1α on CHO-CCR1 membranes
Description: Competitors were prepared by serial dilutions of the unlabelled chemokines in binding buffer to cover the range 10^-6-10^-12 M. The binding buffer used was 50 mM HEPES, pH 7.2 containing 1 mM CaCl_2, 5 mM MgCl_2, 0.15 M NaCl and 0.5% BSA. Wheatgerm SPA beads (Amersham) were solubilised in PBS to 50 mg/ml, and diluted in the binding buffer to a 10 mg/ml, and the final concentration in the assay was 0.25 mg/well. Membranes prepared from CHO cells expressing CCR1 or CCR5 were stored at −80° C. and diluted in the binding buffer to a 80 μg/ml. Equal volumes of membrane and beads stocks were mixed before performing the assay to reduce background. […] The plates were incubated at room temperature with agitation for 4 hours. Radioactivity was measured and data analysed as described for the heparin-binding assay.
MIP-1α for binding to recombinant CCR1 and CCR5 in membranes prepared from CHO stable transfectants. There was no significant difference in any of the single mutations on both receptors (results not shown).

| fold reduction in affinity against WT RANTES [fold] | fold loss of affinity against WT RANTES [fold] | Binder |
| --- | --- | --- |
| 100 | – | B1 |
| – | 3 | B2 |

— patent US7402303 (LABORATOIRES SERONO, dated 2008)
